Legend:
rTsGS = target: T1, rTsGS (Trichinella spiralis, UniProt A0ABR3KY69); assay: phosphate release, absorbance at […] nm, with inhibitor; format: biochemical; details: substrates Glu, ATP, NH4+
T1 construct: gene TSPI_06310
T1 sequence (A0ABR3KY69 1-365): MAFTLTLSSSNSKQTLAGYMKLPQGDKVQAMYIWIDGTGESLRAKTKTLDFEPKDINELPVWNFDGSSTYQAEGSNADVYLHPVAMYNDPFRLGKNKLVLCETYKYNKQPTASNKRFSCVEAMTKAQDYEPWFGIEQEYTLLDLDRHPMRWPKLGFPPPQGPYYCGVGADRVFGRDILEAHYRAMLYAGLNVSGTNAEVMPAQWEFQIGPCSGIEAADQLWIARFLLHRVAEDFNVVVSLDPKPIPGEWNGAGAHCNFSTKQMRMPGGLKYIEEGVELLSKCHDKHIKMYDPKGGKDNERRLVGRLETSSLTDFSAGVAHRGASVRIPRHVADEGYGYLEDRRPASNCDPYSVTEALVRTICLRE

N = assay: purified protein; details: pH 7.0, 45 °C, 100 mM Mg2+, glutamate and ATP as co-substrates, range 0.5-5 mM
N[C@@H](CCC(=O)O)C(=O)O = assay: purified protein; format: biochemical, Trichinella spiralis; details: pH 7.0, 45 °C, 100 mM Mg2+, ATP and NH4+ as co-substrates, range 0.5-5 mM

| Compound | inhibition at 10% glufosinate (rTsGS) | Km (N) [mM] | Km (N[C@@H](CCC(=O)O)C(=O)O) [mM] |
| --- | --- | --- | --- |
| CP(=O)(O)CCC(N)C(=O)O (stereo not drawn) [glufosinate] | Both EDTA and glufosinate could inhibit the rTsGS enzyme activity |  |  |
| rTsGS (Trichinella spiralis) |  | 0.17 | 0.20 |

— publication PMC8488193, “Characterization of a Novel Glutamine Synthetase From Trichinella spiralis and Its Participation in Larval Acid Resistance, Molting, and Development” (Frontiers in Cell and Developmental Biology, 2021)
